The values below come from paper PMC6404586.

By stoichiometry N is commonly meant the number of molecules, sites or subunits per partner or assembly. In general, koff refers to the first-order rate constant of dissociation. For orientation: kon means the second-order rate constant of association.

In assay [1] the target is C3d (human) (UniProt P01024). Briefly: SEC; CIP and C3d loaded separately or mixed in equimolar concentration onto a Superdex column; MW from a calibration curve.
The next assay has as its target C3b (human) (UniProt P01024). Briefly: ELISA; 100 ng of C3, C3b or C3d coated; increasing concentrations of CIP; anti-CIP antibody; apparent Kd as reciprocal of fitted Ka.
Assay [2] deals with C3d (human) (UniProt P01024). Described as above.
A further assay concerns the target complement C3 (human). The assay is described as above.
Assay [3] deals with C3d (human) (UniProt P01024). Briefly: SPR; BIAcore X100; C3d covalently immobilised on CM5 chip (250 response units); CIP 0.0390-5 μM flowed; PBS with 0.005% Tween 20; 22°C; 1:1 Langmuir model; apparent Kd. A general note: SPR reads the build-up and loss of mass on a sensor chip optically.

Sequence of UniProt P01024 (P01024 1002-1303): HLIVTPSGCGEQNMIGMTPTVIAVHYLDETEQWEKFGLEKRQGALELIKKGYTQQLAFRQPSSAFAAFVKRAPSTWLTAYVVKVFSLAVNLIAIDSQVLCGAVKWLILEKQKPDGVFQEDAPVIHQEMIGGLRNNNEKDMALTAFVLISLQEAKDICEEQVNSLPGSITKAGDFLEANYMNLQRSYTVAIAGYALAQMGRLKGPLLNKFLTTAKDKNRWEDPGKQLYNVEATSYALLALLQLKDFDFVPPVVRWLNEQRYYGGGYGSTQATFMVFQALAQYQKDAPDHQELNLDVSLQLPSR

Take “complement interfering protein (CIP) (natural protein)”: the stoichiometry N with C3d (human) [1] turned out to be 1. In addition, the Kd with C3b (human) turned out to be 0.0824 µM; with C3d (human) [2], 0.076 µM; with complement C3 (human) it was 0.0848 µM; in the assay with C3d (human) [3], 0.079 µM. In addition, the koff with C3d (human) [3] was 0.00085 s⁻¹. In addition, the kon with C3d (human) [3] came out at 10800 M⁻¹ s⁻¹.
